Values quoted from earlier work, collected in paper PMC8526019.
One block for each substance: values may come before it.

Columns and labels:
ATG3 (Homo sapiens) = ATG3 (Homo sapiens) (UniProt Q9NT62)
[1] = target: Atg7 (Saccharomyces cerevisiae) (UniProt P38862)
ATG14 (Homo sapiens) = ATG14 (Homo sapiens) (UniProt Q6ZNE5)
[2] = target: E-cadherin (Homo sapiens) (UniProt P12830)

Sequence of UniProt Q9NT62 (Q9NT62 whole entry): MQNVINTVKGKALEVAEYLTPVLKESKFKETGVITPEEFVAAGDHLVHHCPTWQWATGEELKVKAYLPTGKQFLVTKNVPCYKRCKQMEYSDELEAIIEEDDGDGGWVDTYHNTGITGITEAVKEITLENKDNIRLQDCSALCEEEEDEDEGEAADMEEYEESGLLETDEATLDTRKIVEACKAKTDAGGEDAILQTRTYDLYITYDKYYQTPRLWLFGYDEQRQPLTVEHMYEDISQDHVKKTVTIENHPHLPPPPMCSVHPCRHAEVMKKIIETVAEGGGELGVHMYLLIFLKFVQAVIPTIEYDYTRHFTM
Sequence of UniProt Q6ZNE5 (Q6ZNE5 whole entry): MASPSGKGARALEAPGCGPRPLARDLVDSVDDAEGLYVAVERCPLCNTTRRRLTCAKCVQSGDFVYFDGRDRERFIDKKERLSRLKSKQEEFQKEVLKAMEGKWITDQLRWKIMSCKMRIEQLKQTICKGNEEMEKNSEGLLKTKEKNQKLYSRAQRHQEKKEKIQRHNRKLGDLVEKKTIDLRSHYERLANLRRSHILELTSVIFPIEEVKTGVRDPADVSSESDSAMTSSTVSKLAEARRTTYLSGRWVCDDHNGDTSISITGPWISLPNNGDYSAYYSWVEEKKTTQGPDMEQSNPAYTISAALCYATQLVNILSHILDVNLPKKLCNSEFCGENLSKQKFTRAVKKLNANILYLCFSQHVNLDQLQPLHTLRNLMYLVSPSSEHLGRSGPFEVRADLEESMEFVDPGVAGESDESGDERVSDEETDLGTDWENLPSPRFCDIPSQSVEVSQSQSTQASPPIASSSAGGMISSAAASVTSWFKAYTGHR

Kd (ATG3 (Homo sapiens)): 50 nM
Substance: ATG12 (from UniProt O94817)

Substance: Atg7 (from UniProt P38862)
Kd [1]: 1 nM

Kd (ATG14 (Homo sapiens)): 3200 nM
Substance: BECN1 (from UniProt Q14457)

Kd [2]: 160000 nM
Substance: E-cadherin (from UniProt P12830)
